T1: MT1-160p (MT1-MMP amino acids 160-174) (human)
T1 peptide: REVPYAYIREGHEKQ


Experiments:
[1] = molecular target: T1, MT1-160p (MT1-MMP amino acids 160-174); test: ELISA
[2] = molecular target: recombinant human MT1-MMP catalytic domain (human, UniProt P50281 114-287); test: ELISA

Row | Binder | Kd [1] [nM] | Kd [2] [nM]
1 | HWKHLHNTKTFL [phage-displayed MT1-AF7p] | 0.075 | 
2 | HWKHLHNTKTFL [MT1-AF7p] |  | 47.4

Source: article PMC3085951 (Journal of controlled release : official journal of the …, 2011)
